The text below walks through data of article PMC3045599.

This experiment addresses NrdA-a/NrdA-b heterodimer of phage Aeh1, wild type (phage Aeh1). Briefly: GEMMA.

A word on the stoichiometry N: it is the number of molecules, sites or subunits per partner or assembly.

“NrdA-a/NrdA-b heterodimer of phage Aeh1, wild type (complex)” gave a stoichiometry N of 2.
